Changes are numbered by the printed parent chain.
B1: FWB1904 (antibody, V domains shown)
VH: QVQLVQSGAEVKKPGSSVKVSCKASGYIFTSYNVHWVRQAPGQGLEWIGSIYPDNGDTSYNQNFRGRATITADKSTSTAYMELSSLRSEDTAVYYCARGDFAYWGQGTLVTVSS
VL: DIQMTQSPSSLSASVGDRVTITCKASNGISNDIAWYQQKPGKAPKLLIYSASYRYSGVPSRFSGSGSGTDFTFTISSLQPEDIATYYCQQHSTTPYTFGQGTKLEIK
B2: FWB1908 (antibody, V domains shown)
VH: B1 VH with S31T, T58S, S59T, R65K
VL: B1 VL with A25G, N27Q, I29V, I33V, S56T
B3: FWB1920 (antibody, V domains shown)
VH: B1 VH with V34I, T58S, F64Y
VL: B1 VL with A25G, I29V
B4: FWB1925 (antibody, V domains shown)
VH: B1 VH with T58S, S59T, N61D, Q62E, N63D, F64Y
VL: B1 VL with A25G
B5: FWB1921 (antibody, V domains shown)
VH: B1 VH with T58S, S59T, F64Y
VL: B1 VL with A25G, I29V
B6: FWB1910 (antibody, V domains shown)
VH: B1 VH with S31T, N61D, Q62E, N63D, R65K
VL: B1 VL with A25V, N27Q, I29V, I33A, A34V, S56T
B7: FWB1906 (antibody, V domains shown)
VH: B1 VH with T58S, F64Y
VL: B1 VL
B8: FWB1911 (antibody, V domains shown)
VH: B1 VH with T58S, F64Y, R65K
VL: B1 VL with I29V, T97S
B9: FWB1914 (antibody, V domains shown)
VH: B1 VH with T58S, Q62N, F64Y, R65K
VL: DIQMTQSPSSLSASVGDRVTITCKASNGVSNDIAWYQQKPGKAPKLLIYSASYRYSGVPSRFSGSGSGTDFTFTISSLQPEDIATYYCQQHSTTPYTFGQGTKLEIKR
B10: FWB1915 (antibody, V domains shown)
VH: B1 VH with T58S, N61D, Q62E, N63D, F64Y, R65K
VL: B1 VL with I29V
B11: FWB1907 (antibody, V domains shown)
VH: B1 VH with H35N, T58S, Q62N, F64Y, R65K
VL: B1 VL with K24R
B12: FWB1918 (antibody, V domains shown)
VH: B1 VH with T58S
VL: B1 VL with A25G
B13: FWB1916 (antibody, V domains shown)
VH: B1 VH with T58S, F64Y, R65K
VL: B1 VL
B14: FWB1924 (antibody, V domains shown)
VH: B1 VH with I51L, N61D, Q62E, N63D, F64Y, R65K
VL: B1 VL with A25V, N27Q, I29V, I33A, A34V
B15: FWB1919 (antibody, V domains shown)
VH: B1 VH with T58S, F64Y
VL: B1 VL with K24R, A25G
B16: FWB1922 (antibody, V domains shown)
VH: B1 VH with T58S, S59T, F64Y
VL: B1 VL with A25G
B17: FWB1923 (antibody, V domains shown)
VH: B1 VH with T58S, S59T, N61D, Q62E, N63D, R65K
VL: B1 VL with A25V, N27Q, I29V, I33A, A34V
B18: FWB1913 (antibody, V domains shown)
VH: B1 VH with T58S, F64Y, R65K, F101Y
VL: B1 VL with I29V, T97S
B19: FWB1905 (antibody, V domains shown)
VH: B1 VH with T58S, F64Y, R65K
VL: B1 VL with I29V
B20: FWB1912 (antibody, V domains shown)
VH: B1 VH with T58S, F64Y, R65K, F101Y
VL: B1 VL with I29V

target: T1, rhFGFR2IIIb-Fc (recombinant human FGFR2IIIb-Fc) (human, UniProt P21802-3 22-378, limits assumed); test: ELISA, coated rhFGFR2IIIb-Fc, anti-Fab HRP
T1 construct: Coated on the ELISA plate at 2 ug/mL; not shown: Fc part
T1 sequence (P21802 other isoform, or with tags, fused parts or gaps limits assumed): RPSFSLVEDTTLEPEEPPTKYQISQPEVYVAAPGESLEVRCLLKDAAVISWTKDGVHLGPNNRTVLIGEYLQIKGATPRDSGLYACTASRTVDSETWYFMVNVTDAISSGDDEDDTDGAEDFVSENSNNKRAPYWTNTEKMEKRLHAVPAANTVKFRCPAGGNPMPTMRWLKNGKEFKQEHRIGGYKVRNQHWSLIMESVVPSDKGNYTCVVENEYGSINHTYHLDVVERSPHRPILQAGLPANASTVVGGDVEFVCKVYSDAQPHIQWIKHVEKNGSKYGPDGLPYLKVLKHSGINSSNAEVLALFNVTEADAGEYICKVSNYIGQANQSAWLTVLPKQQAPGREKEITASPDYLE

EC50 [nM] | Binder
0.351 | B1
0.281 | B2
1.21 | B3
0.643 | B4
0.621 | B5
0.279 | B6
0.324 | B7
0.697 | B8
1.01 | B9
0.877 | B10
1.06 | B11
0.626 | B12
0.582 | B13
1.89 | B14
0.879 | B15
0.656 | B16
1.68 | B17
0.903 | B18
0.298 | B19
0.724 | B20

target: T2, Murine FGFR2IIIb (murine, UniProt P21803-2 22-263, limits assumed); test: ELISA, coated antigen, anti-Fab HRP
T2 construct: Construct used in the ELISA is not described
T2 sequence (P21803 other isoform, or with tags, fused parts or gaps limits assumed): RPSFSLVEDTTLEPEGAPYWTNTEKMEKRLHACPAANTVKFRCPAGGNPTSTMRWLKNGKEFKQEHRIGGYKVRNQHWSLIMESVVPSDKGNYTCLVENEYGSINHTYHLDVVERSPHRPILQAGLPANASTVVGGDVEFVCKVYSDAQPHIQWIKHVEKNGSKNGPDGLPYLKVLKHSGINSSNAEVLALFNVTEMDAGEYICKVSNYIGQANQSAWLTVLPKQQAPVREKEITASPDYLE

EC50 [nM] | Binder
0.308 | B1
0.225 | B2
0.274 | B3
0.0908 | B4
0.261 | B5
0.295 | B6
0.289 | B7
0.338 | B8
0.25 | B9
0.273 | B10
5.9 | B11
0.27 | B12
0.29 | B13
0.314 | B15
0.139 | B16
0.296 | B18
0.262 | B19
0.293 | B20

target: T3, Human FGFR2βIIIb (human, UniProt P21802-21 22-263, limits assumed); test: ELISA, coated antigen, anti-Fab HRP
T3 construct: Construct used in the ELISA (tag, Fc, limits) is not described
T3 sequence (P21802 other isoform, or with tags, fused parts or gaps limits assumed): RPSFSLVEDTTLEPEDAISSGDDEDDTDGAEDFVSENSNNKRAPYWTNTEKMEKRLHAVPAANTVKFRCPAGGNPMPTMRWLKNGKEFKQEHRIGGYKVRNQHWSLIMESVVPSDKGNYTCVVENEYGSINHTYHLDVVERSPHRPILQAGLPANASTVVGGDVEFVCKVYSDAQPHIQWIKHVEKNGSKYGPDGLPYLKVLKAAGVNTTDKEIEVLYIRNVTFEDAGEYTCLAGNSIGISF

EC50 [nM] | Binder
0.163 | B1
0.126 | B2
0.153 | B3
0.173 | B4
0.176 | B5
0.21 | B6
0.167 | B7
0.246 | B8
0.203 | B9
0.185 | B10
0.262 | B11
0.135 | B12
0.143 | B13
0.149 | B15
0.215 | B16
0.196 | B18
0.173 | B19
0.207 | B20

— patent US20240101683A1 (published 2024)
